Measured values reported in article PMC4263446 (Molecular Biology of the Cell, 2014).

Molecular target: the molecule itself
Test: non-reducing SDS-PAGE

B1: Flag-CD73L (canonical ecto-5′-nucleotidase, long protein isoform of CD73) (enzyme, human, UniProt P21589-1 27-549, looked up)
chain: WELTILHTNDVHSRLEQTSEDSSKCVNASRCMGGVARLFTKVQQIRRAEPNVLLLDAGDQYQGTIWFTVYKGAEVAHFMNALRYDAMALGNHEFDNGVEGLIEPLLKEAKFPILSANIKAKGPLASQISGLYLPYKVLPVGDEVVGIVGYTSKETPFLSNPGTNLVFEDEITALQPEVDKLKTLNVNKIIALGHSGFEMDKLIAQKVRGVDVVVGGHSNTFLYTGNPPSKEVPAGKYPFIVTSDDGRKVPVVQAYAFGKYLGYLKIEFDERGNVISSHGNPILLNSSIPEDPSIKADINKWRIKLDNYSTQELGKTIVYLDGSSQSCRFRECNMGNLICDAMINNNLRHTDEMFWNHVSMCILNGGGIRSPIDERNNGTITWENLAAVLPFGGTFDLVQLKGSTLKKAFEHSVHRYGQSTGEFLQVGGIHVVYDLSRKPGDRVVKLDVLCTKCRVPSYDPLKMDEVYKVILPNFLANGGDGFQMIKDELLRHDSGDQDINVVSTYISKMKVIYPAVEGRIKFS
modifications: glycosylated (Asn-311/333/403)
stoichiometry N: 2
